Measurements published in paper PMC6422423, “Constitutively active BRS3 is a genuinely orphan GPCR in placental mammals” (PLoS Biology, 2019).
One block for each binder: values may come before it. Where no end group is shown, it is not given here.

How the values were obtained:
Conditions in all cases: one partner purified
[1] = molecular target: T1, human bombesin receptor subtype-3 (human, UniProt P32247 1-399); experiment: radioligand binding; displacement of 50 pM [125I]-Tyr-NMB by unlabeled peptide on disaggregated transfected HEK293 cells; 1 h at 21°C; 24.5 mM HEPES pH 7.4, 98 mM NaCl; bound tracer separated by centrifugation
T1 construct: bombesin receptor subtype-3 of human (Homo sapiens); also called hBRS3; human BRS3; source: HEK293, transiently transfected, on cells
T1 sequence (looked up): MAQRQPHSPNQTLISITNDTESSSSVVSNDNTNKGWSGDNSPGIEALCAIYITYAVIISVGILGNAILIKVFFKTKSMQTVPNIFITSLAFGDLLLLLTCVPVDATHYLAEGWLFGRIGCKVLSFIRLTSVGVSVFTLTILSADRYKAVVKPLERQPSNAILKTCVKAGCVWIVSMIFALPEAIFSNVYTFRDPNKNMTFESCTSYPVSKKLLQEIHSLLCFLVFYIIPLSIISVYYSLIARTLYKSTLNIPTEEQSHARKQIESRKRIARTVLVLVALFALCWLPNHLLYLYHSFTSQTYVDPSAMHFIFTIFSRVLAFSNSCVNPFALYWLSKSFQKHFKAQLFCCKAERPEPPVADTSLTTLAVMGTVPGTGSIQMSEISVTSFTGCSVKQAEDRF

[2] = molecular target: T2, mouse bombesin receptor subtype-3 (mouse, UniProt O54798 1-399); experiment: as above
T2 construct: bombesin receptor subtype-3 of mouse (Mus musculus); also called mBRS3; mouse BRS3; source: HEK293, transiently transfected, on cells
T2 sequence (looked up): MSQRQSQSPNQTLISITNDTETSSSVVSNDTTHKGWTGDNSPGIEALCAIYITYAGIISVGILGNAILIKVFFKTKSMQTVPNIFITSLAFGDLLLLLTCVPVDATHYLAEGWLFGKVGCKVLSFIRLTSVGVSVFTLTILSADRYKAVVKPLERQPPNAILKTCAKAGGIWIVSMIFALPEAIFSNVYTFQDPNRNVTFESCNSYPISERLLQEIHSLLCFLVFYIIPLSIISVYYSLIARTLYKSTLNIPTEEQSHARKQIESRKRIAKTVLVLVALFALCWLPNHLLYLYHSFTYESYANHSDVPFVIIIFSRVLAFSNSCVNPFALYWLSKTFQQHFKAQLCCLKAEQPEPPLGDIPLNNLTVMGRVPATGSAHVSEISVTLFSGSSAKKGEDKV

[3] = molecular target: T1, human bombesin receptor subtype-3; experiment: radioligand binding; displacement of 50 pM [125I]-Tyr42-GRP by unlabeled peptide on disaggregated transfected HEK293 cells; 1 h at 21°C; 24.5 mM HEPES pH 7.4, 98 mM NaCl; bound tracer separated by centrifugation
[4] = molecular target: T2, mouse bombesin receptor subtype-3; experiment: as above

Ki [1]: > 1000 nM
Ki [2]: > 1000 nM
B1: neuromedin B, unlabeled ligand peptide of the radioligand binding assays (peptide)
peptide: YKIKVNPRGNLWATGHFM
modifications: ends and bridges not checked
notes: The N-terminal Tyr may have been added for iodination (surmise); No C-terminal amide is printed for this peptide; also called NMB; source: synthetic peptide (Anhui Guoping Pharmaceutical)

Ki [3]: > 1000 nM
Ki [4]: > 1000 nM
B2: gastrin-releasing peptide, unlabeled ligand peptide of the radioligand binding assays (peptide)
peptide: APLQPGGSPALTKIYPRGSHWAVGHLM
modifications: ends and bridges not checked
notes: gastrin-releasing peptide, 27 residues; No C-terminal amide is printed for this peptide; also called GRP; source: synthetic peptide (Anhui Guoping Pharmaceutical)
